The text below walks through data of publication PMC12525494.

For assay [1], the target named is ST2 receptor on Raw 264.7 cells (mouse (endogenous in Raw 264.7)) (UniProt P14719).
Assay [2] has the same target. This is another data set of the same source.

Chain of UniProt P14719 (P14719 27-567): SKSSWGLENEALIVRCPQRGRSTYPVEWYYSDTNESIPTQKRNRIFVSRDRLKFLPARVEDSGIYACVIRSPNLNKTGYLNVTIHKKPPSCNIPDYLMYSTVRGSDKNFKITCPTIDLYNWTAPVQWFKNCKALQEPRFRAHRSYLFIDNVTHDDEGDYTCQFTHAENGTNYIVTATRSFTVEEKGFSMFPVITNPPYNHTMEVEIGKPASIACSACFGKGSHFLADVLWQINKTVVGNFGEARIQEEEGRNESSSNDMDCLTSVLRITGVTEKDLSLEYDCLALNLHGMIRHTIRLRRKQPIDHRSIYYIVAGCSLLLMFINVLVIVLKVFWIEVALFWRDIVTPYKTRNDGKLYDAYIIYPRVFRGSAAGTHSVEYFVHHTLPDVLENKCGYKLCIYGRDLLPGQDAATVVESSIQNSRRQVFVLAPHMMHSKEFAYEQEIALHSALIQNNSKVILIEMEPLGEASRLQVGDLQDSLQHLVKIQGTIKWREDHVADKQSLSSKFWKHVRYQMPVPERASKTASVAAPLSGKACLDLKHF

Substance “immunotoxin IL-33αS (murine IL-33 fused to the ribotoxin α-sarcin) (from UniProt P00655 28-177)” yielded an MTT viability of Raw 264.7 cells, IC50 at 72 h in assay [1] of 300 nM. The same substance displayed a Viability (%) on Raw 264.7 cell line, 1 µM protein, 72 h in assay [2] of 40%.
